Publication PMC6717526 (Cellular signalling, 2019)

Target: bovine arrestin-3^1−393 (truncated arrestin-3, residues 1–393), purified (bovine, UniProt P32120 1-393)
Test: MST

Chain of bovine arrestin-3^1−393 (truncated arrestin-3, residues 1–393), purified (P32120 1-393): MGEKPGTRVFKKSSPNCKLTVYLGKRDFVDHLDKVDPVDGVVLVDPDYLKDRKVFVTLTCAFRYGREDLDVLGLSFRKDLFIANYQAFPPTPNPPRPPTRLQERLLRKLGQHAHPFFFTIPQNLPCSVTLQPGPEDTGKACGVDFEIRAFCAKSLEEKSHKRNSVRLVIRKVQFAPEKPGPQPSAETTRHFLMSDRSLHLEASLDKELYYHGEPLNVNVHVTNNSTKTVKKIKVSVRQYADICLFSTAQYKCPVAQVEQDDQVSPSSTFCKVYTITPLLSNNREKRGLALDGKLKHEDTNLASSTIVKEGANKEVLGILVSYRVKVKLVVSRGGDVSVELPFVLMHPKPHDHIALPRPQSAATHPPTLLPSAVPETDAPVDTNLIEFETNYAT

B1: human His-MELK^1−326,T167E (maternal embryonic leucine-zipper kinase, kinase domain and flanking ubiquitin-associated domain, residues 1–326, T167E) (domain or fragment, UniProt Q14680 1-326, looked up)
chain: MKDYDELLKYYELHETIGTGGFAKVKLACHILTGEMVAIKIMDKNTLGSDLPRIKTEIEALKNLRHQHICQLYHVLETANKIFMVLEYCPGGELFDYIISQDRLSEEETRVVFRQIVSAVAYVHSQGYAHRDLKPENLLFDEYHKLKLIDFGLCAKPKGNKDYHLQECCGSLAYAAPELIQGKSYLGSEADVWSMGILLYVLMCGFLPFDDDNVMALYKKIMRGKYDVPKWLSPSSILLLQQMLQVDPKKRISMKNLLNHPWIMQDYNYPVEWQSKNPFIHLDDDCVTELSVHHRNNRQTMEDLISLWQYDHLTATYLLLLAKKAR
modifications: RED-tris-NTA dye on the His tag (in the MST experiment only)
- Kd: 130 ± 35 nM
